Assay results published in patent US20050036993A1, “Immune activation by double-stranded polynucleotides” (priority 1998, published 2005).

Tests used:
[1] = system: rat 90K tumor-associated immunostimulator; assay: Northern analysis of 90K tumor-associated immunostimulator RNA in FRTL-5 cells; type: cell-based; conditions: 5 Tg nucleic acid or 100 U/ml KIFN, Northern after 48 hours
From the text: 12: 19-33 (1998)). Filters were sequentially hybridized with the rat 90K, MHC Class I, MHC Class II, and GAPDH probes. […] The glyceraldehyde phosphate dehydrogenase (GAPDH) probe was cut from a pTRI-GAPDH-Rat template (Ambion, Tex.).

NF-PB = assay: Gel shift analysis with NF-PB consensus ODN, nuclear protein of FRTL-5 cells; type: cell-based, rat; conditions: nuclear extracts; dsDNA within 3 hours
Procedure: Nuclear Extracts—A previously employed method to prepare nuclear extracts (S. Ikuyama et al., Mol. Endocrinol. 6:1701-1715 (1992)) was modified to prepare extracts from small numbers of cells. Cells were washed, scraped in 1 ml PBS, pelleted in a microfuge, and resuspended in five volumes of Buffer A (10 mM HEPES-KOH, pH 7.9, 10 mM KCl, 1.5 mM MgCl2, 0.1 mM EDTA) containing 0.3 M sucrose and 2% Tween 40. To release nuclei, they were frozen and thawed once, then repetitively pipetted, 50 to 100 times, using a micropipet with a yellow tip (200 T1 capacity). Samples were overlayed on 1 ml of 1.5 M sucrose in Buffer A and microfuged for 10 min at 4EC. Pelleted nuclei were washed with 1 ml Buffer A, centrifuged for 30 sec, then resuspended in 50 T1 of Buffer B (20 mM HEPES-KOH, pH 7.9, 420 mM NaCl, 1.5 mM MgCl2, 0.2 mM EDTA, 25% glycerol). Samples were placed on ice for 20 min with occasional vortexing and centrifuged for 20 min at 4EC. The supernatant fraction containing nuclear protein was aliquoted and stored at −70 C. […]
Electrophoretic Mobility Shift Analysis (EMSA)—Oligonucleotides were labeled with [K-^32P]ATP using T4 polynucleotide kinase, then purified on 8% native polyacrylamide gels (S. Ikuyama et al., Mol. Endocrinol. 6:1701-1715 (1992); H. Shimura, et al., Mol. Endocrinol. 8:1049-69 (1994)). […] Mixtures were analyzed on 5% native polyacrylamide gels and autoradiographed. […]

[2] = system: MHC Class I, MHC Class II; assay: Northern analysis of MHC Class I and Class II RNA after infection or transfection of FRTL-5 cells; conditions: 5 Tg nucleic acid transfected (Lipofectamine Plus), HSV-2 infection or KIFN, Northern 48 hours after treatment
FRTL-5 rat thyroid cells = conditions: literature; cited from earlier work
[3] = system: LMP2, TAP-1, invariant chain (Ii), HLA-DM, B7, CIITA, RFX5, IRF-1, PKR, IFN; assay: Northern analysis of genes responsible for antigen presentation in FRTL-5 cells; type: cell-based, rat
Procedure: In some experiments, cells were treated with 100 U/ml rat KIFN for the last 48 hours of culture.
Transfection—All procedures used 10 cm dishes and transfection with Lipofectamine Plus (GIBCO BRL, Gaithersburg, Md.). […] Transfections with Lipofectamine (GIBCO BRL, Gaithersburg, Md.), with DEAE dextran, or using electroporation, performed as in Example 1, yielded the same results.
Nucleic Acids—The following polynucleotides were used in these experiments, both made by Pharmacia Biotech, Piscataway, N.J.: poly(dI)/poly(dC) and poly(I)/poly(C). The same results were obtained, however, using sonicated salmon sperm DNA (Stratagene, La Jolla, Calif.), bacterial DNA or calf thymus DNA (Sigma, St. Louis, Mo.), and FRTL-5 cell genomic DNA. […] Viral DNA from Human Herpes Simplex virus and viral DNA oligonucleotides from HIV, HTLV-1, Foamy virus, and cytomegalic virus (CMV) as well as the plasmid vectors pcDNA3 and pRc/RSV, used with or without methylation, also duplicated the results with the ds synthetic polynucleotides.
The probe for rat CIITA is a cloned rat Type III CIITA cDNA fragment in pcDNA3 (K. Suzuki et al., manuscript in preparation). EcoRI is used to release a 4098 bp fragment as the probe.

B1: KIFN: K-interferon (gamma interferon, character lost), rat recombinant, 100 U/ml (protein, UniProt P01581 23-156, looked up)
Interferon gamma: QGTLIESLESLKNYFNSSSMDAMEGKSLLLDIWRNWQKDGNTKILESQIISFYLRLFEVLKDNQAISNNISVIESHLITNFFSNSKAKKDAFMSIAKFEVNNPQIQHKAVNELIRVIHQLSPESSLRKRKRSRC
90K RNA levels [1]: weaker
binding of p50/p65 and p50 homodimer to consensus NF-PB oligonucleotide binding site (NF-PB): significantly lesser level
MHC RNA levels / MHC expression (Class I and Class II) [2]: increases Class II more than Class I levels
cell cycle progression (FRTL-5 rat thyroid cells): inhibits progression
expression of genes responsible for antigen presentation ([3]; 5 Tg dsDNA or 100 U/ml KIFN, 3 to 72 hours): induced
induction of CIITA, RFX5 and IRF-1 ([3]; 100 U/ml KIFN): induced
